From patent publication US12630600B2 (MEDIMMUNE LIMITED, priority 2022, dated 2026)
Starred links: 1 amine or outer side, 2 acyl side, 3 side chain; linkers in the order of their positions; H or OH if unused. Non-standard residues stand in square brackets, D forms with d. Groups on a side chain read outwards from the residue. No end group written: not given here. *: point of attachment. C20 diacid = O=C(O)CCCCCCCCCCCCCCCCCCC(=O)*; C18 diacid = O=C(O)CCCCCCCCCCCCCCCCC(=O)*; γGlu = O=C(O)[C@H](CCC(=O)[*:2])N[*:1]; αMeF = C[C@](N)(Cc1ccccc1)C(=O)O; PEG4 = NCCOCCOCCOCCOCCC(=O)O; AEEA = NCCOCCOCC(=O)O; Aib = CC(C)(N)C(=O)O

Experiments:
human GLP-1 receptor = human GLP-1 receptor (human, UniProt P43220); experiment: cell-based or functional assay
human glucagon receptor = human glucagon receptor (human, UniProt P47871); experiment: cell-based or functional assay

hGLP-1R EC50 (pM) (human GLP-1 receptor)	hGluc-R EC50 (pM) (human glucagon receptor)	Binder
43.4 pM	119 pM	H[Aib]HGS[αMeF]TSDVSK[αMeF]LDSRAAK([AEEA-AEEA-γGlu-C18 diacid])D[αMeF]VQ[Aib]IANT-NH2 [Peptide 284]
27.5 pM	26.5 pM	H[Aib]HGS[αMeF]TSDVSK[αMeF]LDSRAAK([AEEA-AEEA-γGlu-C18 diacid])DFVQ[Aib]IANT-NH2 [Peptide 287]
31.6 pM	53 pM	H[Aib]HGS[αMeF]TSDVSKYLDSRAAK([AEEA-AEEA-γGlu-C18 diacid])D[αMeF]VQ[Aib]IANT-NH2 (not fully specified; also: X13: αMePhe or Y (table)) [Peptide 286]
312 pM	17100 pM	H[Aib]HGS[αMeF]TSDVSK[Aib]LDSRAAK([AEEA-AEEA-γGlu-γGlu-C20 diacid])D[αMeF]VQ[Aib]IANT-NH2 [Peptide 295]
1230 pM	1140 pM	H[Aib]HGS[αMeF]TSDVSK[αMeF]LDSRAAK([AEEA-AEEA-γGlu-γGlu-C20 diacid])D[αMeF]VQ[Aib]IANT-NH2 (not fully specified) [Peptide 282]
347 pM	260 pM	H[Aib]HGS[αMeF]TSDVSK[αMeF]LDSRAAK([AEEA-AEEA-γGlu-γGlu-C20 diacid])DFVQWIANT-NH2 (not fully specified) [Peptide 290]
28.7 pM	20.4 pM	H[Aib]HGS[αMeF]TSDVSKYLDSRAAKDFVQWIANT-NH2 (not fully specified (residue 20)) [Peptide 292]
42.7 pM	26.9 pM	H[Aib]HGS[αMeF]TSDVSK[αMeF]LDSRAAK([AEEA-AEEA-γGlu-C18 diacid])D[αMeF]VQWIANT-NH2 [Peptide 288]
118 pM	148 pM	H[Aib]HGS[αMeF]TSDVSK[αMeF]LDSRAAKD[αMeF]VQWIANT-NH2 (not fully specified (residue 20); also: X13: αMePhe or Y (table)) [Peptide 289]
301 pM	87 pM	HSHGS[αMeF]TSDVSK[αMeF]LDSRAAK([AEEA-AEEA-γGlu-C18 diacid])D[αMeF]VQ[Aib]IANT-NH2 [Peptide 285]
75.5 pM	573 pM	H[Aib]HGS[αMeF]TSDVSR[αMeF]LDSRAAK([AEEA-AEEA-γGlu-γGlu-C20 diacid])D[αMeF]VQ[Aib]IANT-NH2 (N-terminus assumed; SMILES CC[C@H](C)[C@H](NC(=O)C(C)(C)NC(=O)[C@H](CCC(N)=O)NC(=O)[C@@H](NC(=O)[C@](C)(Cc1ccccc1)NC(=O)[C@H](CC(=O)O)NC(=O)[C@H](CCCCNC(=O)COCCOCCNC(=O)COCCOCCNC(=O)CC[C@H](NC(=O)CC[C@H](NC(=O)CCCCCCCCCCCCCCCCCCC(=O)O)C(=O)O)C(=O)O)NC(=O)[C@H](C)NC(=O)[C@H](C)NC(=O)[C@H](CCCNC(=N)N)NC(=O)[C@H](CO)NC(=O)[C@H](CC(=O)O)NC(=O)[C@H](CC(C)C)NC(=O)[C@](C)(Cc1ccccc1)NC(=O)[C@H](CCCNC(=N)N)NC(=O)[C@H](CO)NC(=O)[C@@H](NC(=O)[C@H](CC(=O)O)NC(=O)[C@H](CO)NC(=O)[C@@H](NC(=O)[C@](C)(Cc1ccccc1)NC(=O)[C@H](CO)NC(=O)CNC(=O)[C@H](Cc1c[nH]cn1)NC(=O)C(C)(C)NC(=O)[C@@H](N)Cc1c[nH]cn1)[C@@H](C)O)C(C)C)C(C)C)C(=O)N[C@@H](C)C(=O)N[C@@H](CC(N)=O)C(=O)N[C@H](C(N)=O)[C@@H](C)O) [Peptide 298]
64.1 pM	3250 pM	H[Aib]HGS[αMeF]TSDVSK[Aib]LDSRAAK([AEEA-AEEA-γGlu-C18 diacid])D[αMeF]VQ[Aib]IANT-NH2 [Peptide 296]

The remaining lines, values behind:

Binder	hGLP-1R EC50 (pM) (human GLP-1 receptor)	hGluc-R EC50 (pM) (human glucagon receptor)
H[Aib]HGS[αMeF]TSDVSK[αMeF]LDSRAAK([AEEA-C18 diacid])D[αMeF]VQ[Aib]IANT-NH2 [Peptide 273]	22.1 pM	23.3 pM
H[Aib]HGS[αMeF]TSDVSK[αMeF]LDSRAAK([AEEA-AEEA-C18 diacid])D[αMeF]VQ[Aib]IANT-NH2 [Peptide 272]	15.7 pM	14.3 pM
H[Aib]HGS[αMeF]TSDVSK[αMeF]LDSRAAK([AEEA-γGlu-γGlu-C18 diacid])D[αMeF]VQ[Aib]IANT-NH2 [Peptide 274]	27.1 pM	31.3 pM
H[Aib]HGS[αMeF]TSDVSK[αMeF]LDSRAAK([PEG4-γGlu-γGlu-C20 diacid])D[αMeF]VQ[Aib]IANT-NH2 (N-terminus assumed; SMILES CC[C@H](C)[C@H](NC(=O)C(C)(C)NC(=O)[C@H](CCC(N)=O)NC(=O)[C@@H](NC(=O)[C@](C)(Cc1ccccc1)NC(=O)[C@H](CC(=O)O)NC(=O)[C@H](CCCCNC(=O)CCOCCOCCOCCOCCNC(=O)CC[C@H](NC(=O)CC[C@H](NC(=O)CCCCCCCCCCCCCCCCCCC(=O)O)C(=O)O)C(=O)O)NC(=O)[C@H](C)NC(=O)[C@H](C)NC(=O)[C@H](CCCNC(=N)N)NC(=O)[C@H](CO)NC(=O)[C@H](CC(=O)O)NC(=O)[C@H](CC(C)C)NC(=O)[C@](C)(Cc1ccccc1)NC(=O)[C@H](CCCCN)NC(=O)[C@H](CO)NC(=O)[C@@H](NC(=O)[C@H](CC(=O)O)NC(=O)[C@H](CO)NC(=O)[C@@H](NC(=O)[C@](C)(Cc1ccccc1)NC(=O)[C@H](CO)NC(=O)CNC(=O)[C@H](Cc1c[nH]cn1)NC(=O)C(C)(C)NC(=O)[C@@H](N)Cc1c[nH]cn1)[C@@H](C)O)C(C)C)C(C)C)C(=O)N[C@@H](C)C(=O)N[C@@H](CC(N)=O)C(=O)N[C@H](C(N)=O)[C@@H](C)O) [Peptide 269]	52 pM	271 pM
H[Aib]HGS[αMeF]TSDVSK[αMeF]LDSRAAK([AEEA-C20 diacid])D[αMeF]VQ[Aib]IANT-NH2 [Peptide 278]	78.9 pM	83.5 pM
H[Aib]HGS[αMeF]TSDVSK[αMeF]LDSRAAK([AEEA-γGlu-γGlu-C20 diacid])D[αMeF]VQ[Aib]IANT-NH2 [Peptide 279]	86.5 pM	150 pM
H[Aib]HGS[αMeF]TSDVSK[αMeF]LDSRAAK([AEEA-AEEA-C20 diacid])D[αMeF]VQ[Aib]IANT-NH2 [Peptide 277]	49.5 pM	57.3 pM
H[Aib]HGS[αMeF]TSDVSK[αMeF]LDSRAAK([γGlu-γGlu-C20 diacid])D[αMeF]VQ[Aib]IANT-NH2 [Peptide 275]	111 pM	175 pM
H[Aib]HGS[αMeF]TSDVSK[αMeF]LDSRAAK([γGlu-C20 diacid])D[αMeF]VQ[Aib]IANT-NH2 [Peptide 276]	143 pM	91.4 pM
H[Aib]HGS[αMeF]TSDVSK[αMeF]LDSRAAK([AEEA-AEEA-γGlu-C20 diacid])D[αMeF]VQ[Aib]IANT-NH2 [Peptide 280]	78.3 pM	155 pM
H[Aib]HGS[αMeF]TSDVSK[αMeF]LDSRAAK([AEEA-AEEA-γGlu-γGlu-C20 diacid])D[αMeF]VQ[Aib]IANT-NH2 [Peptide 281]	155 pM	1040 pM
H[Aib]HGS[αMeF]TSDVSK[αMeF]LDSRAAK([γGlu-γGlu-C18 diacid])D[αMeF]VQ[Aib]IANT-NH2 [Peptide 270]	24.4 pM	31.3 pM
H[Aib]HGS[αMeF]TSDVSK[αMeF]LDSRAAK([γGlu-C18 diacid])D[αMeF]VQ[Aib]IANT-NH2 (N-terminus assumed; SMILES CC[C@H](C)[C@H](NC(=O)C(C)(C)NC(=O)[C@H](CCC(N)=O)NC(=O)[C@@H](NC(=O)[C@](C)(Cc1ccccc1)NC(=O)[C@H](CC(=O)O)NC(=O)[C@H](CCCCNC(=O)CC[C@H](NC(=O)CCCCCCCCCCCCCCCCC(=O)O)C(=O)O)NC(=O)[C@H](C)NC(=O)[C@H](C)NC(=O)[C@H](CCCNC(=N)N)NC(=O)[C@H](CO)NC(=O)[C@H](CC(=O)O)NC(=O)[C@H](CC(C)C)NC(=O)[C@](C)(Cc1ccccc1)NC(=O)[C@H](CCCCN)NC(=O)[C@H](CO)NC(=O)[C@@H](NC(=O)[C@H](CC(=O)O)NC(=O)[C@H](CO)NC(=O)[C@@H](NC(=O)[C@](C)(Cc1ccccc1)NC(=O)[C@H](CO)NC(=O)CNC(=O)[C@H](Cc1c[nH]cn1)NC(=O)C(C)(C)NC(=O)[C@@H](N)Cc1c[nH]cn1)[C@@H](C)O)C(C)C)C(C)C)C(=O)N[C@@H](C)C(=O)N[C@@H](CC(N)=O)C(=O)N[C@H](C(N)=O)[C@@H](C)O) [Peptide 271]	54.6 pM	28 pM
